By Kd is commonly meant a measure of binding affinity in units of concentration.

Results on five molecules are retold here after publication PMC5785977, “A dual role for the N-terminal domain of the IL-3 receptor in cell signalling” (Nature Communications, 2018).

Substitutions are numbered along the chain they refer to. Numbers in names are those of the source. Where two headings read alike, the source gives them in different places.

For one assay, the target named is IL5Rα:βc (Homo sapiens) (UniProt Q01344). To be noted: cited from earlier work.
In assay [1] the target is IL3Rα ECD (Homo sapiens) (UniProt P26951). Briefly: SPR. To be noted: cited from earlier work.
Assay [2] has the same target. The experiment in a line: SPR. To be noted: cited from earlier work. This is another data set of the same source.
Assay [3] shares this target. The experiment in a line: SPR. To be noted: cited from earlier work. The source holds these as a separate data set.
For assay [4] the target is unchanged. The experiment in a line: SPR. Conditions: cited from earlier work. The source holds these as a separate data set.
A further assay concerns the target IL3Rα:βc (Homo sapiens) (UniProt P26951). To be noted: cited from earlier work.
Assay [5] addresses IL3Rα ECD (Homo sapiens) (UniProt P26951). Conditions: cited from earlier work.
Assay [6] shares this target. The experiment in a line: SPR. Conditions: cited from earlier work. The source holds these as a separate data set.
The next assay has as its target GMRα:βc (Homo sapiens) (UniProt P15509). Conditions: cited from earlier work.
In assay [7] the target is IL3Rα + βc co-expressed on COS cells (human) (UniProt P26951). Briefly: radioligand binding; saturation binding of radioiodinated (125I) cytokine to transfected COS cells; dissociation constants by EBDA and LIGAND.
Assay [8] has as its target IL3Rα D197L + βc co-expressed on COS cells (human) (UniProt P26951). The assay is described as above.
The target of assay [9] is IL3Rα C76A,C195A + βc co-expressed on COS cells (human) (UniProt P26951). Described as above.
The target of assay [10] is IL3Rα SP2 + βc co-expressed on COS cells (human) (UniProt P32927). The description is as above.
For assay [11], the target named is full-length IL3Rα expressed alone on COS cells (human) (UniProt P26951). The assay is described as above.
Assay [12] deals with T1, IL3Rα + βc co-expressed on CTLL-2 cells (human, UniProt P26951 19-378; P32927 17-897, N144 and R145 to K144).
T1 construct: IL-3 receptor α-subunit, human, full-length; the cDNA of the site 1 functional studies in CTLL-2 encodes a splice variant that changes N144 and R145 to K144; beta common (βc) receptor subunit, human, wild-type; also called CTLL-2 IL3Rα + βc; source: CTLL-2 cells, retrovirally transduced, on cells
T1 sequence (looked up) 1: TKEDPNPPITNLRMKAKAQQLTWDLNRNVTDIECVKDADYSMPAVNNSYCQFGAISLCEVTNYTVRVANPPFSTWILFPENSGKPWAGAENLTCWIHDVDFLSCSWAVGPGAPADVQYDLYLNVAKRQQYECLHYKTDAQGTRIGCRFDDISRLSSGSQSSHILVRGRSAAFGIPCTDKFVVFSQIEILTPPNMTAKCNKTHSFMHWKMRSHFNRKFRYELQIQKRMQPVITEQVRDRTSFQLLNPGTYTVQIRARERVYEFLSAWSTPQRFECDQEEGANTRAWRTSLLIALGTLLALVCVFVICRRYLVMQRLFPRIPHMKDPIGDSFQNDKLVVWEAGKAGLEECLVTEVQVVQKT
T1 sequence (looked up) 2: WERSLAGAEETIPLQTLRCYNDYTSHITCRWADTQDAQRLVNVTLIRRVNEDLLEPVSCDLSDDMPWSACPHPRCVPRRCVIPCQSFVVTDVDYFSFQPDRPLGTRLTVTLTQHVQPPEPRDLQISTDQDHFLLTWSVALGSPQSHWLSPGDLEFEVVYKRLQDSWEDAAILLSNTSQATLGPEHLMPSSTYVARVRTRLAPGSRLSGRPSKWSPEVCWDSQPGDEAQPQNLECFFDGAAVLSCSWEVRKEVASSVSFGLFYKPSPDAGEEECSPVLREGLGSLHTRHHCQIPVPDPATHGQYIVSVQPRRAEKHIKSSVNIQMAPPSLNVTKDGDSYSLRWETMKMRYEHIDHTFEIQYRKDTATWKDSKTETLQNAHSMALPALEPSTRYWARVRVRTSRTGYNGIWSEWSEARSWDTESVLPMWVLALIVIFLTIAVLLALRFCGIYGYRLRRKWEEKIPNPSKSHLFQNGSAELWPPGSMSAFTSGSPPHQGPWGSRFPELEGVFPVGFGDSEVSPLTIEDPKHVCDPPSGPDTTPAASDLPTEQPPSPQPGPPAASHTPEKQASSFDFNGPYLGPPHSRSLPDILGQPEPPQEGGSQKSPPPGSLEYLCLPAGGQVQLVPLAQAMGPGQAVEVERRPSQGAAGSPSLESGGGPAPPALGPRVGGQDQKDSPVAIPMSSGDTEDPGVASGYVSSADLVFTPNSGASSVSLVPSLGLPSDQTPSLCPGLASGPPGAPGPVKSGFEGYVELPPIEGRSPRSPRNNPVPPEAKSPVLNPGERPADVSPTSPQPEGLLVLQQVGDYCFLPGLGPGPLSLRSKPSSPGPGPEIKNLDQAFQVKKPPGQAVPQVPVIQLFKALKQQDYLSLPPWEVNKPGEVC
Briefly: radioligand binding; saturation binding of radioiodinated (125I) cytokine to the CTLL-2 cell line expressing IL3Rα and βc; dissociation constants by EBDA and LIGAND. To be noted: one partner purified.

The target in assay [13] is IL3Rα + βc co-expressed on COS cells (human) (UniProt P26951).
Assay [14] addresses IL3Rα D197L + βc co-expressed on COS cells (human) (UniProt P26951).
The target in assay [15] is IL3Rα C76A,C195A + βc co-expressed on COS cells (human) (UniProt P26951).
Assay [16] deals with IL3Rα SP2 + βc co-expressed on COS cells (human) (UniProt P32927).
Assay [17] addresses T2, endogenous IL-3 receptor on TF-1 cells (human (endogenous in TF-1), UniProt P26951 19-378; P32927 17-897).
T2 construct: IL-3 receptor α-subunit, endogenous in the human TF-1 erythroleukaemic cell line; beta common (βc) receptor subunit, endogenous in the human TF-1 cell line; the discussion notes that TF-1 cells also express transcripts of the IL3Rα SP2 splice variant; also called TF-1 Endogenous; source: endogenous, on TF-1 cells
Briefly: radioligand binding; saturation binding of radioiodinated (125I) cytokine to TF-1 cells (endogenous receptor); dissociation constants by EBDA and LIGAND. Conditions: one partner purified.

The target in assay [18] is IL-3 receptor on TF-1Hi cells (overexpressed IL3Rα) (human | human (endogenous in TF-1)) (UniProt P26951). The experiment in a line: radioligand binding; saturation binding of radioiodinated (125I) cytokine to TF-1Hi cells (overexpressed IL3Rα); dissociation constants by EBDA and LIGAND.

Chain of GMRα:βc (Homo sapiens) (P15509 23-320): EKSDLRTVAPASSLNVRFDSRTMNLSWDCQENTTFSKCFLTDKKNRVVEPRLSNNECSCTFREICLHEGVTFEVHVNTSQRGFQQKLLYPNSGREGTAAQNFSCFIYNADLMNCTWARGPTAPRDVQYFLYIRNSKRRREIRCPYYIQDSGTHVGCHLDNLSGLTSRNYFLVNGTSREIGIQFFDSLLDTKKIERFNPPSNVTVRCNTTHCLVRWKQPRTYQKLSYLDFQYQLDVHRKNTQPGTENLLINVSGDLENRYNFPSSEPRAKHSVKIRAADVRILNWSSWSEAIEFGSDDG
Chain of IL5Rα:βc (Homo sapiens) (Q01344 21-342): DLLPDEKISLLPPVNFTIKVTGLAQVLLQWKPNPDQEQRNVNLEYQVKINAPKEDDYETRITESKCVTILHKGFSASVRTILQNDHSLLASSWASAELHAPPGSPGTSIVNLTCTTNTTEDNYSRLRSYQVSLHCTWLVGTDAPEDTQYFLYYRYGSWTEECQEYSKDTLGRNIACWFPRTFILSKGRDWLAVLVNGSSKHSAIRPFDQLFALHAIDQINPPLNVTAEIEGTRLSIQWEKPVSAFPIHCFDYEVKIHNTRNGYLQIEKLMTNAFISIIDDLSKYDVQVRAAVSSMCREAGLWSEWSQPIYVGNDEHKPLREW

IL-5 (from UniProt P05113): the Kd in the assay with IL5Rα:βc (Homo sapiens) was 0.2 nM.

As to IL-3 (from UniProt P08700), the Kd with IL3Rα ECD (Homo sapiens) [1] is over 5000 nM; with IL3Rα ECD (Homo sapiens) [2] it was 220 nM; with IL3Rα ECD (Homo sapiens) [3], over 5000 nM; with IL3Rα ECD (Homo sapiens) [4], over 5000 nM; in the assay with IL3Rα:βc (Homo sapiens) it was 0.2 nM; in the assay with IL3Rα ECD (Homo sapiens) [5], 510 nM. In the assay with IL3Rα ECD (Homo sapiens) [6], the Kd is over 5000 nM.

In the case of GM-CSF (from UniProt P04141), the Kd with GMRα:βc (Homo sapiens) is 0.2 nM.

B1: wild-type human IL-3, residues W13 to Q125 of the mature peptide with a W13Y mutation and a GAMGS N-terminal tail (ligand)
chain: GAMGSYVNCSNMIDEIITHLKQPPLPLLDFNNLNGEDQDILMENNLRRPNLEAFNRAVKSLQNASAIESILKNLLPCLPLATAAPTRHPIHIKDGDWNEFRRKLTFYLKTLENAQAQQ
modifications: radioiodinated with 125I in the cell-surface binding assays (residue not stated)
notes: N-terminal tail arising from the expression plasmid, left after TEV cleavage; interleukin-3, human, residues W13 to Q125 of the mature peptide; numbers count on: the mature protein; also called wild-type IL-3; interleukin-3; source: E. coli BL21 CodonPlus (DE3)-RIPL, purified (HisTrap, TEV digest, SEC, reversed-phase); not shown: Nus, N-terminal, cleaved; 6xHis, N-terminal, cleaved
As to B1, the Kd in assay [7] is 0.48 nM; in assay [8] it was 4.37 nM; in [9], 1.1 nM; in assay [10], 7.61 nM; in [11] it was 141 nM; in assay [12] it was 0.34 nM. The Kd in assay [17] was found to be 2.06 nM; in assay [18], 0.14 nM. Moreover, the proliferation of FDH cells co-expressing βc and wild-type IL3Rα, ED50 of the IL-3 dose–response in assay [13] was 0.29 ng/mL. Also, in assay [14], the proliferation of FDH cells co-expressing βc and IL3Rα D197L, ED50 of the IL-3 dose–response is 1.71 ng/mL. For the same molecule, the proliferation of FDH cells co-expressing βc and IL3Rα C76A,C195A, ED50 of the IL-3 dose–response in assay [15] is 12.2 ng/mL. Moreover, the proliferation of FDH cells co-expressing βc and IL3Rα SP2, ED50 of the IL-3 dose–response in assay [16] was 6.94 ng/mL.

B2: human IL-3 K116W, residues W13 to Q125 of the mature peptide with a W13Y mutation and a GAMGS N-terminal tail (ligand)
chain: B1 chain with K109W
modifications: radioiodinated with 125I in the cell-surface binding assays (residue not stated)
notes: N-terminal tail arising from the expression plasmid, left after TEV cleavage; interleukin-3, human, residues W13 to Q125 of the mature peptide; numbers count on: the mature protein; also called IL-3 K116W superkine; IL-3 superkine; source: E. coli BL21 CodonPlus (DE3)-RIPL, purified (HisTrap, TEV digest, SEC, reversed-phase); not shown: Nus, N-terminal, cleaved; 6xHis, N-terminal, cleaved
Consider B2, for which the Kd came out at 0.43 nM in assay [7]; 1.6 nM in assay [8]; 0.94 nM in [9]; 2.98 nM in assay [10]; 17.8 nM in assay [11]; 0.14 nM in [12]. The figures for the Kd in assay [17] and in assay [18] were 0.35 nM and 0.065 nM, respectively. Moreover, in [13], the proliferation of FDH cells co-expressing βc and wild-type IL3Rα, ED50 of the IL-3 K116W dose–response was 0.37 ng/mL. Moreover, the proliferation of FDH cells co-expressing βc and IL3Rα D197L, ED50 of the IL-3 K116W dose–response in assay [14] came to 0.6 ng/mL. For the same molecule, the proliferation of FDH cells co-expressing βc and IL3Rα C76A,C195A, ED50 of the IL-3 K116W dose–response in [15] is 2.51 ng/mL. Moreover, the proliferation of FDH cells co-expressing βc and IL3Rα SP2, ED50 of the IL-3 K116W dose–response in [16] was found to be 2.19 ng/mL.
